Assay results taken from patent US20230125173A1.

Legend:
TGFβ1 (R&D systems) = TGFβ1 (R&D systems) (UniProt P01137); experiment: cell-based or functional assay
[1] = biological target: IL2Rβ and common γ chain on 32Dβ cells; experiment: cell-based or functional assay

UniProt P01137, sequence (P01137 279-390 limits assumed): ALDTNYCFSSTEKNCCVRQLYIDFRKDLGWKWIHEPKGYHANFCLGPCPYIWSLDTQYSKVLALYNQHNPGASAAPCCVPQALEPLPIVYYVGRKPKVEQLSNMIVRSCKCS

| Substance | IC50, inhibition of TGFβ1 (0.1nM stock) activity in HEK-Blue TGFβ reporter cells, QUANTI-Blue OD 620-655 nM (TGFβ1 (R&D systems)) [nM] | EC50, 32Dβ cell proliferation (WST1, absorbance at 450 nM) [1] [nM] |
| --- | --- | --- |
| TGFR-Fc (R&D Systems) (Fc fusion) | 0.461 |  |
| recombinant IL-15 (from UniProt P40933 49-162) (ligand) |  | 0.0106 |
